Article PMC10926475, “A Detoxification Enzyme for Apis mellifera Newly Characterized by Recombinant Expression: 10-Formyl Tetrahydrofolate Dehydrogenase” (Frontiers in Insect Science, 2022)

Substrate: Nc1nc2c(c(=O)[nH]1)N[C@@H](CN(C=O)c1ccc(C(=O)N[C@@H](CCC(=O)O)C(=O)O)cc1)CN2
Experiment: purified protein
Type: biochemical, Apis mellifera
Settings: dehydrogenase reaction, 200 μM NADP+, 100 mM β-mercaptoethanol, Tris/HCl pH 7.6 (pH of highest Vmax), 30°C

B1: Amel_10-FTHFDH (10-formyl tetrahydrofolate dehydrogenase of A. mellifera) (Apis mellifera) (protein)
chain: AQLKVAIIGQSNFAAEVYKLLKLNGHQITGVFTIPDKGNREDPLAITAKIDNTPVFKIKSWRSKGVTLPEVLQLYKGIEVDLNVLPFCSQFIPMEVINHPRHRSICYHPSLLPRHRGASAITWTLIEGDDTAGFSIFWADDGLDTGPILLQRSCKVNSNDTLDSLYNNFLYPEGIKAMAEAVNLVAKGTAPMIPQTEEGATYDPMMNKKELQKIDWTKPAKQVHDFIRSLDSTPGAWTIIDGEEVRLFGSILWNDDQIPEHEIEVNVEDRLGIIHKDGLLIKAVDNHFVNVERMKVGTRTILASKFGQKSEDTIIEFTAEEQKMIESLKRTWEGILNMDVNEDTDFFACGAGSMDVIRLVEEVKDNLGVILQNIDVFMSPVFIQFVNKVVLTARGISTSKEIKYDAVEVQTNNMTLKFPRQLFINGEFVNGHGNPIDTINPHDETIICSVETGTVEDVDKAVKAAKKAFEEGEWSKISARERGVLLFKLADLMEEHKEELATIESIDSGAVYTLALKTHIGMSIETWRYFAGWCDKIQGSTIPITHARPNRNLTFTRKEPIGVCGLVTPWNYPLMMLSWKMAACLAAGNTVVMKPAQASPLTALKFAELTAKAGFPPGVVNIVPGNGTETGNAICEHLLIRKLGFTGSTQIGQSIMKSCANSNLKKVSLELGGKSPLVIFEDTDLQQAIKIAMSSVFFNKGENCIAAGRLFVEETIHDEFLQRIVEETKKISIGNPLDRSTAHGPQNHKAHLNKLLKFVERGVKEGAKLIYGGKRLDRPGWYFEPTIFTDVKDDMYIAKEESFGPIMVISKFSSKNIDDMIARANNTEYGLASGILTKDISKALRFAEKIEAGTVFINTYNKTDVAAPFGGFKMSGFGKDLGQEALNEYLKTKTITVEY
notes: complete ORF, N-terminal 6xHis tag kept (…... from primer), baculovirus / Hi5 insect cells, Ni-NTA, about 100 kDa
Km: 9.596 µM
